Laboratory results from the supplement of paper PMC9233669.
This sample holds only a part of the variants without activity.

Assays:
[1] = system: biotinyl-Phe-oxazolone; assay: self-aminoacylation, catalytic enhancement (BFO) (fold over background); higher = more active; k-Seq, kA / k0A0; sequences stand for … in GGGAAUGGAUCCACAUCUACGAAUUC…UUCACUGCAGACUUGACGAAGCUG
Summary of the method: (§1)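 The uncatalyzed rate is the low-activity peak of a bimodal Gaussian fit, and catalytic enhancement is median kA divided by it. The kA values came from pseudo-first-order fits, with 1000 bootstraps, of per-sequence fraction reacted measured by streptavidin capture, triplicate qPCR and Illumina sequencing. Mutagenized RNA pools with a 21-nt variable region (0.43 μM) were reacted with each biotinyl-aminoacyl-oxazolone at 2–1250 μM in 50 μL HEPES/NaCl/KCl/MgCl2/CaCl2 buffer with 5% acetonitrile, pH 6.9–7.0, for 90 minutes at room temperature.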

[2] = system: biotinyl-Ile-oxazolone; assay: self-aminoacylation, catalytic enhancement (BIO) (fold over background); higher = more active; k-Seq, kA / k0A0; sequences stand for … in GGGAAUGGAUCCACAUCUACGAAUUC…UUCACUGCAGACUUGACGAAGCUG
Summary of the method: as §1

[3] = system: biotinyl-Met-oxazolone; assay: self-aminoacylation, catalytic enhancement (BMO) (fold over background); higher = more active; k-Seq, kA / k0A0; sequences stand for … in GGGAAUGGAUCCACAUCUACGAAUUC…UUCACUGCAGACUUGACGAAGCUG
Summary of the method: as §1

[4] = system: biotinyl-Val-oxazolone; assay: self-aminoacylation, catalytic enhancement (BVO) (fold over background); higher = more active; k-Seq, kA / k0A0; sequences stand for … in GGGAAUGGAUCCACAUCUACGAAUUC…UUCACUGCAGACUUGACGAAGCUG
Summary of the method: as §1

[5] = system: biotinyl-Leu-oxazolone; assay: self-aminoacylation, catalytic enhancement (BLO) (fold over background); higher = more active; k-Seq, kA / k0A0; sequences stand for … in GGGAAUGGAUCCACAUCUACGAAUUC…UUCACUGCAGACUUGACGAAGCUG
Summary of the method: as §1

[6] = system: biotinyl-Trp-oxazolone; assay: self-aminoacylation, catalytic enhancement (BWO) (fold over background); higher = more active; k-Seq, kA / k0A0; sequences stand for … in GGGAAUGGAUCCACAUCUACGAAUUC…UUCACUGCAGACUUGACGAAGCUG
Summary of the method: as §1

| Sequence | self-aminoacylation [1] | self-aminoacylation [2] | self-aminoacylation [3] | self-aminoacylation [4] | self-aminoacylation [5] | self-aminoacylation [6] |
| --- | --- | --- | --- | --- | --- | --- |
| CCACACCUCAAGCAAUCGGUU [Fam1B.1 aminoacylation ribozyme variant] | 0.882 | 1.43 | 1.14 | 2.1 | 1.98 | 1.57 |
| CCACACCUCAAGCUAUCGGUC [Fam1B.1 aminoacylation ribozyme variant] | 1.1 | 1.37 | 1.21 | 1.27 | 1.18 | 0.809 |
| CCACACCUCAAGGAAUCGGUC [Fam1B.1 aminoacylation ribozyme variant] | 0.875 | 1.34 | 1.02 | 1.26 | 1.34 | 1.32 |
| CCACACCUCAUGCAAUCGGUC [Fam1B.1 aminoacylation ribozyme variant] | 1.19 | 0.959 | 0.839 | 1.05 | 0.685 | 0.975 |
| CCACACGUCAAGCAAACGGUC [Fam1B.1 aminoacylation ribozyme variant] | 0.465 | 0.784 | 0.86 | 1.37 | 0.809 | 0.619 |
| CCACACGUCAAGCAAUAGGUC [Fam1B.1 aminoacylation ribozyme variant] | 1.1 | 0.655 | 0.765 | 0.831 | 0.652 | 0.587 |
| CCACACGUCAAGCCAUCGGUC [Fam1B.1 aminoacylation ribozyme variant] | 1.11 | 1.34 | 1.58 | 2.45 | 1.48 | 1.21 |
| CCACACGUCAUGCAAUCGGUC [Fam1B.1 aminoacylation ribozyme variant] | 0.974 | 1.18 | 1.26 | 1.34 | 0.972 | 1.61 |
| CCACACGUCGAGCAAUCGGUC [Fam1B.1 aminoacylation ribozyme variant] | 0.83 | 1.17 | 0.959 | 2.02 | 1.41 | 1.22 |
| CCACACGUGAAGCAAUCGGUC [Fam1B.1 aminoacylation ribozyme variant] | 0.826 | 0.9 | 1.32 | 1.2 | 0.721 | 1.39 |
| CCACACUACAAACAAUCGGUC [Fam1B.1 aminoacylation ribozyme variant] | 1.41 | 0.904 | 0.642 | 0.883 | 0.652 | 0.993 |
| CCACACUACAAGCAAUCGUUC [Fam1B.1 aminoacylation ribozyme variant] | 0.644 | 0.643 | 0.548 | 0.679 | 0.54 | 0.468 |
| CCACACUAUAAGCAAUCGGUC [Fam1B.1 aminoacylation ribozyme variant] | 0.92 | 0.789 | 0.567 | 0.793 | 0.59 | 0.386 |
| CCACACUCCAAACAAUCGGUC [Fam1B.1 aminoacylation ribozyme variant] | 10.9 | 0.982 | 0.917 | 1.31 | 1.09 | 6.11 |
| CCACACUCCAAGAAAUCGGUC [Fam1B.1 aminoacylation ribozyme variant] | 0.991 | 1.31 | 0.768 | 0.973 | 0.848 | 1 |
| CCACACUCCAAGCAAACGGUC [Fam1B.1 aminoacylation ribozyme variant] | 1.06 | 0.95 | 0.934 | 0.773 | 0.861 | 1.21 |
| CCACACUCCAAGCAAUAGGUC [Fam1B.1 aminoacylation ribozyme variant] | 1.06 | 0.741 | 0.686 | 0.845 | 0.569 | 0.637 |
| CCACACUCCAAGCAAUCGGCC [Fam1B.1 aminoacylation ribozyme variant] | 2.68 | 1.63 | 1.36 | 2.36 | 1.28 | 2.59 |
| CCACACUCCAAGCAGUCGGUC [Fam1B.1 aminoacylation ribozyme variant] | 0.733 | 1.32 | 1.04 | 1.49 | 1.11 | 1.04 |
| CCACACUCCAAGUAAUCGGUC [Fam1B.1 aminoacylation ribozyme variant] | 1.97 | 1.01 | 0.951 | 0.95 | 0.919 | 1.29 |
| CCACACUCCUAGCAAUCGGUC [Fam1B.1 aminoacylation ribozyme variant] | 0.91 | 0.943 | 0.631 | 1.04 | 0.746 | 0.519 |
| CCACACUGCAAGCAAUCGAUC [Fam1B.1 aminoacylation ribozyme variant] | 1.39 | 0.9 | 0.56 | 1.07 | 0.739 | 0.727 |
| CCACACUGCAAGCAAUCGGUU [Fam1B.1 aminoacylation ribozyme variant] | 5.76 | 1.77 | 2.17 | 1.73 | 1.63 | 1.76 |
| CCACACUGCAAGCACUCGGUC [Fam1B.1 aminoacylation ribozyme variant] | 2.57 | 1.63 | 1.54 | 1.66 | 1.39 | 1.47 |
| CCACACUGCAAGCGAUCGGUC [Fam1B.1 aminoacylation ribozyme variant] | 1.13 | 1.27 | 1.19 | 1.57 | 1.15 | 1.43 |
| CCACACUUAAACCAAUCGGUC [Fam1B.1 aminoacylation ribozyme variant] | 1.19 | 0.938 | 0.615 | 0.756 | 0.572 | 0.722 |
